# Molecular target: endogenous MDM2 of SH-SY5Y cells (human (endogenous in SH-SY5Y)) (UniProt Q00987)
# Assay: AlphaScreen or HTRF; AlphaLISA of extracts of SH-SY5Y cells (MG132), endogenous proteins; D1V2Z-CaptSure acceptor beads and biotinylated HT7 on donor beads; background from Tau-KO SH-SY5Y cells
# endogenous MDM2 of SH-SY5Y cells (human (endogenous in SH-SY5Y)), sequence (Q00987 whole entry): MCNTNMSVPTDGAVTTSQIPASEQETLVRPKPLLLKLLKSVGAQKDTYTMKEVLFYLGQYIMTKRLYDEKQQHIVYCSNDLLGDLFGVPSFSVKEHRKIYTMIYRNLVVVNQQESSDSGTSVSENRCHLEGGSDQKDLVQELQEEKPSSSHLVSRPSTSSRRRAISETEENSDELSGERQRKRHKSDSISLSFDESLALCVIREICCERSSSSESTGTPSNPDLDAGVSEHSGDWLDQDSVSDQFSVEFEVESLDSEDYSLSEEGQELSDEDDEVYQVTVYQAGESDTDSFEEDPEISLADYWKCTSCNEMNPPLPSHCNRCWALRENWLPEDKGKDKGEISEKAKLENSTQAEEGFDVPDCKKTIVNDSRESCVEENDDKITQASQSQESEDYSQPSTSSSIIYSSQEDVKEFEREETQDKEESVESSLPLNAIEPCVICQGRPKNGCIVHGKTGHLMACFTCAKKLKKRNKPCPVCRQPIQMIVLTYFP
substance,measurement,value
endogenous Tau of SH-SY5Y cells (from UniProt P10636 1-758) (natural protein),"AlphaLISA signal, fold over background of Tau-KO SH-SY5Y cells",2.7 fold
